According to the Immune Epitope Database (IEDB):

Experiments:
[1] = biological target: HLA-A*29:02; assay: IEDB peptide-MHC binding, purified MHC/competitive/radioactivity; filed as Kd, often an IC50 or EC50 that approximates it; ≥ and ≤ were set here for values at or beyond the usual limits of such assays
[2] = biological target: HLA-A*24:02; assay: as above
[3] = biological target: HLA-A*01:01; assay: as above
[4] = biological target: HLA-A*23:01; assay: as above
[5] = biological target: HLA-A*26:01; assay: as above
[6] = biological target: HLA-A*30:02; assay: as above
[7] = biological target: HLA-A*01:01; assay: IEDB peptide-MHC binding, purified MHC/direct/fluorescence; filed as Kd, often an IC50 or EC50 that approximates it; ≥ and ≤ were set here for values at or beyond the usual limits of such assays
[8] = biological target: HLA-A*26:01; assay: as above
[9] = biological target: HLA-A*02:01; assay: IEDB peptide-MHC binding, purified MHC/competitive/fluorescence; filed as Kd, often an IC50 or EC50 that approximates it; ≥ and ≤ were set here for values at or beyond the usual limits of such assays
[10] = biological target: HLA-B*40:01; assay: IEDB peptide-MHC binding, purified MHC/competitive/radioactivity; filed as Kd, often an IC50 or EC50 that approximates it; ≥ and ≤ were set here for values at or beyond the usual limits of such assays; conditions: source organism: Dengue virus 2 Jamaica/1409/1983
[11] = biological target: HLA-B*07:02; assay: as above; conditions: source organism: Dengue virus 1 Brazil/97-11/1997
[12] = biological target: HLA-B*15:01; assay: IEDB peptide-MHC binding, purified MHC/direct/fluorescence; filed as Kd, often an IC50 or EC50 that approximates it; ≥ and ≤ were set here for values at or beyond the usual limits of such assays; conditions: source organism: SARS-CoV1
[13] = biological target: HLA-A*11:01; assay: as above; conditions: source organism: SARS-CoV1
[14] = biological target: HLA-A*03:01; assay: as above; conditions: source organism: SARS-CoV1
[15] = biological target: HLA-B*58:01; assay: as above; conditions: source organism: SARS-CoV1
[16] = biological target: HLA-A*02:02; assay: IEDB peptide-MHC binding, purified MHC/competitive/radioactivity; filed as Kd, often an IC50 or EC50 that approximates it; ≥ and ≤ were set here for values at or beyond the usual limits of such assays; conditions: source organism: SARS coronavirus Tor2
[17] = biological target: HLA-A*02:06; assay: as above; conditions: source organism: SARS coronavirus Tor2
[18] = biological target: HLA-A*02:03; assay: as above; conditions: source organism: SARS coronavirus Tor2
[19] = source organism: SARS coronavirus Tor2
[20] = source organism: Mycobacterium avium 104
[21] = source organism: Dengue virus 4 Philippines/H241/1956
[22] = source organism: Lymphocytic choriomeningitis virus (strain Armstrong)
[23] = source organism: Mammarenavirus brazilense
[24] = source organism: Dengue virus 1 Brazil/97-11/1997

SSQGSEYDY
Kd [1, 19]: 0.294 µM
Kd [2, 19]: ≥ 77.6 µM
Kd [3, 19]: 0.576 µM
Kd [4, 19]: ≥ 77.8 µM
Kd [5, 19]: ≥ 102 µM
Kd [6, 19]: 0.0689 µM

AFLIGANYL
Kd [1, 19]: ≥ 26.6 µM
Kd [2, 19]: ≥ 45.9 µM
Kd [3, 19]: ≥ 73 µM
Kd [4, 19]: ≥ 55.3 µM
Kd [5, 19]: ≥ 77.9 µM
Kd [6, 19]: ≥ 78.9 µM

LTVTLVWLY
Kd [7, 20]: ≥ 20 µM
Kd [8, 20]: 0.0027 µM

RIQQYMFFM
Kd ([9]; source organism: Human alphaherpesvirus 1 strain 17): 0.081 µM

VEDYGFGVF
Kd [10]: 0.315 µM

CTLSEQLDY
Kd [1, 19]: 0.00105 µM
Kd [2, 19]: ≥ 77.6 µM
Kd [3, 19]: 0.00853 µM
Kd [4, 19]: ≥ 77.8 µM
Kd [5, 19]: 0.842 µM
Kd [6, 19]: 0.0276 µM

LYPLAIPVTM
Kd [2, 21]: 1.51 µM
Kd [4, 21]: 0.336 µM

LFSGVSWVM
Kd ([2]; source organism: Dengue virus 3 Martinique/1243/1999): 0.105 µM

TPSMAMRCVG
Kd [11]: 0.405 µM

KPGTSGSPIV
Kd [11]: 1.08 µM

EIARIVEQM
Kd ([8]; source organism: Mycobacterium tuberculosis variant bovis): 0.194 µM

NFKHLREFVF
Kd [1, 19]: 0.0164 µM
Kd [2, 19]: 0.26 µM
Kd [3, 19]: ≥ 70.4 µM
Kd [4, 19]: 0.115 µM
Kd [5, 19]: ≥ 69.7 µM
Kd [6, 19]: ≥ 78.9 µM

AFEKMVSLL
Kd [1, 19]: ≥ 27.4 µM
Kd [2, 19]: 11.5 µM
Kd [3, 19]: ≥ 78.1 µM
Kd [4, 19]: 8.39 µM
Kd [5, 19]: ≥ 74.4 µM
Kd [6, 19]: ≥ 81.1 µM

SFYADPKRFF
Kd [1, 22]: 0.0444 µM
Kd [2, 22]: 0.709 µM
Kd [4, 22]: 0.126 µM

ICSSVLKRY
Kd [1, 23]: ≥ 50.6 µM
Kd [2, 23]: 15.4 µM
Kd [3, 23]: 0.47 µM
Kd [4, 23]: 14.6 µM
Kd [5, 23]: ≥ 77.9 µM
Kd [6, 23]: 0.302 µM

GMSRIGMEV
Kd ([9]; source organism: SARS-CoV1): 0.0016 µM

GYLKPTTFM
Kd [1, 19]: 0.538 µM
Kd [2, 19]: 12.2 µM
Kd [3, 19]: ≥ 78.1 µM
Kd [4, 19]: 2.54 µM
Kd [5, 19]: ≥ 77.9 µM
Kd [6, 19]: 6.69 µM

EFFECFKYLL
Kd [1, 23]: 0.0327 µM
Kd [2, 23]: 1.2 µM
Kd [4, 23]: 0.624 µM

NGDVVAIDY
Kd [1, 19]: 0.825 µM
Kd [2, 19]: ≥ 77.6 µM
Kd [3, 19]: 1.03 µM
Kd [4, 19]: ≥ 77.8 µM
Kd [5, 19]: ≥ 81.5 µM
Kd [6, 19]: 1.8 µM

PMMCPFLFL
Kd [1, 22]: 0.208 µM
Kd [2, 22]: 0.484 µM
Kd [4, 22]: 0.22 µM

TSNPKTPKY
Kd [1, 19]: 0.549 µM
Kd [2, 19]: ≥ 77.6 µM
Kd [4, 19]: ≥ 77.8 µM
Kd [5, 19]: ≥ 56.4 µM
Kd [6, 19]: 0.000228 µM
Kd [12]: 0.393 µM
Kd ([7]; source organism: SARS-CoV1): 4.51 µM
Kd [13]: 14.3 µM
Kd [14]: 1.23 µM
Kd [15]: 0.212 µM

MPQMKKILK
Kd ([9]; source organism: Vaccinia virus WR): 2.01 µM

YQCGHYTHI
Kd [1, 19]: ≥ 25 µM
Kd [16]: 0.0721 µM
Kd [2, 19]: 0.116 µM
Kd [17]: 0.00923 µM
Kd [18]: 0.0149 µM
Kd [3, 19]: ≥ 20.1 µM
Kd [4, 19]: 0.312 µM
Kd [5, 19]: 13.3 µM
Kd [6, 19]: 10.9 µM

SWLVHKQWFL
Kd [2, 24]: 2.7 µM
Kd [4, 24]: 0.173 µM

QSDTVFDHY
Kd ([1]; source organism: Variola virus): ≥ 38 µM
Kd ([2]; source organism: Variola virus): ≥ 77.5 µM
Kd ([3]; source organism: Variola virus): 0.0095 µM
Kd ([4]; source organism: Variola virus): ≥ 77.7 µM
Kd ([5]; source organism: Variola virus): ≥ 77.9 µM
Kd ([6]; source organism: Variola virus): 11.9 µM
